Laboratory results: article PMC3830201 (2013)

Molecular target: F-actin assembled from rabbit skeletal muscle G-actin (Oryctolagus cuniculus (Rabbit), UniProt P68135)
Assay: F-actin co-sedimentation

B1: GST-Swiprosin-1 fusion protein (wild type) (protein)
chain: MATDELATKLSRRLQMEGEGGGETPEQPGLNGAAAAAAGAPDEAAEALGSADCELSAKLLRRADLNQGIGEPQSPSRRVFNPYTEFKEFSRKQIKDMEKMFKQYDAGRDGFIDLMELKLMMEKLGAPQTHLGLKNMIKEVDEDFDSKLSFREFLLIFRKAAAGELQEDSGLCVLARLSEIDVSSEGVKGAKSFFEAKVQAINVSSRFEEEIKAEQEERKKQAEEMKQRKAAFKELQSTFK
B1: binds.
